Source: patent US20230159662A1 (Kyowa Kirin, published 2023)
Positions count from the first letter of the chain named. Names and notes keep the numbering of the source.

B1: human IgG1 anti-human CCR4 antibody (KM2160), S239E/I332F (antibody)
heavy: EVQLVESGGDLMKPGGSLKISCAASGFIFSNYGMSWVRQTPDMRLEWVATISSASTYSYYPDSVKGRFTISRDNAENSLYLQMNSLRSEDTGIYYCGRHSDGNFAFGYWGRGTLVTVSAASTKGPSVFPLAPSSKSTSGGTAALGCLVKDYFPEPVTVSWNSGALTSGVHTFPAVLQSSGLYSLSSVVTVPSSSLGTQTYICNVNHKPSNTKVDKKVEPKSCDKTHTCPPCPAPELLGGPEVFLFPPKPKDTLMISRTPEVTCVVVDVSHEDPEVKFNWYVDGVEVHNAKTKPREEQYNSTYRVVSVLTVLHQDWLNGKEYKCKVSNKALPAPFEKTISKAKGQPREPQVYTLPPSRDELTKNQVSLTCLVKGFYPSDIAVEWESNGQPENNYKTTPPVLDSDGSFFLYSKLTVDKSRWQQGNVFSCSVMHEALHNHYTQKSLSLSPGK
light: DVLMTQTPLSLPVSLGDQASISCRSSRNIVHINGDTYLEWYLQRPGQSPKLLIYKVSNRFSGVPDRFSGSGSGTDFTLKISRVEAEDLGVYYCFQGSLLPWTFGGGTRLEIRRTVAAPSVFIFPPSDEQLKSGTASVVCLLNNFYPREAKVQWKVDNALQSGNSQESVTEQDSKDSTYSLSSTLTLSKADYEKHKVYACEVTHQGLSSPVTKSFNRGEC
B2: human IgG1 anti-human CCR4 antibody (KM2160), S239E/I332L (antibody)
heavy: not shown
light: B1 light
B3: human IgG1 anti-human CCR4 antibody (KM2160), S239E/I332T (antibody)
heavy: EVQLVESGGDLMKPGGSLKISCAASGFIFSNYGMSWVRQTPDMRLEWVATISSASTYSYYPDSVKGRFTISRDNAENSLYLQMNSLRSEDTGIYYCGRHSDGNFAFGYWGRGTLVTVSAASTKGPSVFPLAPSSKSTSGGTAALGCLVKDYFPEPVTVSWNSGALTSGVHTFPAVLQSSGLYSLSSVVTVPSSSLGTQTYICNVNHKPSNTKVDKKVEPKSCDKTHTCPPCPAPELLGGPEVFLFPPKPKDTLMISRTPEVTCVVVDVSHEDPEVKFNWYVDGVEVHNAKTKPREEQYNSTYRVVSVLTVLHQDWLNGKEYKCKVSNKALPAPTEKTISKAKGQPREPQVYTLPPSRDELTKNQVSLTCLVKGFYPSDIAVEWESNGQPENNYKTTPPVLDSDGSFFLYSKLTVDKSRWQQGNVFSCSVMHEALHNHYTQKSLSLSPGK
light: B1 light
B4: human IgG1 anti-human CCR4 antibody (KM2160), S239D/K326L (antibody)
heavy: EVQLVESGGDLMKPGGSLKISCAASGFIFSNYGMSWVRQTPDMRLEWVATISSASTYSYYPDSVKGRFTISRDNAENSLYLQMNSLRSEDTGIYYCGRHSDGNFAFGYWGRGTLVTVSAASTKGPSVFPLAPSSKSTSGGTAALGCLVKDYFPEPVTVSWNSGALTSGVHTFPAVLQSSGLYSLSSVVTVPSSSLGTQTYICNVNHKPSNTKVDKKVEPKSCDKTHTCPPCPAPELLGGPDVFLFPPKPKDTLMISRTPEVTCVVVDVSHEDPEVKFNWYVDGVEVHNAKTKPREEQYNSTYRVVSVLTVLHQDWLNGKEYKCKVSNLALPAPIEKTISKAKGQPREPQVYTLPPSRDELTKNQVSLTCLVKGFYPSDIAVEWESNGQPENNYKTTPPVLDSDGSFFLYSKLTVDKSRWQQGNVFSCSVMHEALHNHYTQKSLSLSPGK
light: B1 light
B5: human IgG1 anti-human CCR4 antibody (KM2160), S239D/I332L (antibody)
heavy: not shown
light: B1 light
B6: human IgG1 anti-human CCR4 antibody (KM2160), S239E/K326L (antibody)
heavy: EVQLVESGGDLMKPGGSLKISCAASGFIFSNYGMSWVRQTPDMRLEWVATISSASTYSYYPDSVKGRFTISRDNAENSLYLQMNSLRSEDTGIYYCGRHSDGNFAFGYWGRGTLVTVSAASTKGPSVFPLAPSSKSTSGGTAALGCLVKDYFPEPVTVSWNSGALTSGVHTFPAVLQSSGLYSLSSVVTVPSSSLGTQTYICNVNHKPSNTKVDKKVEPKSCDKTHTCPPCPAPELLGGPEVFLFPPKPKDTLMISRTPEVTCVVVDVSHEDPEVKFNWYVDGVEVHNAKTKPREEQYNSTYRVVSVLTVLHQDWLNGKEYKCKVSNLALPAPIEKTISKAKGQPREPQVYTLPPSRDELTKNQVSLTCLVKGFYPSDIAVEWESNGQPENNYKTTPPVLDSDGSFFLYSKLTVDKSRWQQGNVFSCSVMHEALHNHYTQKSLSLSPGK
light: B1 light
B7: human IgG1 anti-human CCR4 antibody (KM2160), S239D/I332H (antibody)
heavy: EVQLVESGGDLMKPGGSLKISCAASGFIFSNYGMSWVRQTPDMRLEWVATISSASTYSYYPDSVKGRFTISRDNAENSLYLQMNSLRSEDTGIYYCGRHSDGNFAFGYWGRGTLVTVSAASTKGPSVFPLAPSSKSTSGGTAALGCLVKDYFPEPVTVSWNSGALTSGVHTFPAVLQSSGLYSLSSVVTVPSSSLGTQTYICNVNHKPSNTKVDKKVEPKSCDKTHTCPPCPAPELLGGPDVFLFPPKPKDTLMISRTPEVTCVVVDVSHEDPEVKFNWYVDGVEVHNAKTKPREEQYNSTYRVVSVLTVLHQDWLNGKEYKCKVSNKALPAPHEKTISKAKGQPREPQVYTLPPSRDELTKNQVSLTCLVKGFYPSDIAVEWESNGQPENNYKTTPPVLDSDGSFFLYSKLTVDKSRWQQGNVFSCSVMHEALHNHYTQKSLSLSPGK
light: B1 light
B8: human IgG1 anti-human CCR4 antibody (KM2160), S239D/I332Y (antibody)
heavy: not shown
light: B1 light
B9: human IgG1 anti-human CCR4 antibody (KM2160), S239E/I332H (antibody)
heavy: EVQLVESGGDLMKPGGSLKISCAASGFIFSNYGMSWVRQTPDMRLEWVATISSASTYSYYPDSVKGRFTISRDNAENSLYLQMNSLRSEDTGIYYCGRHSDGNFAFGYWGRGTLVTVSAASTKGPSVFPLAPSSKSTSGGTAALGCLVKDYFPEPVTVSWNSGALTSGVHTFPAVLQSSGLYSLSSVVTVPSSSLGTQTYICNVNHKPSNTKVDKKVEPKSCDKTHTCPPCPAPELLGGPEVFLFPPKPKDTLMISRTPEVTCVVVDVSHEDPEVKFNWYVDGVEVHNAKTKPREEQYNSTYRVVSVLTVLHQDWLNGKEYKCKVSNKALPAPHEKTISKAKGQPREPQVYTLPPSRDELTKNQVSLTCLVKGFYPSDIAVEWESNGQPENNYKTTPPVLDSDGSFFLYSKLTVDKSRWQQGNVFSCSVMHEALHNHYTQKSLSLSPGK
light: B1 light
B10: human IgG1 anti-human CCR4 antibody (KM2160), S239E/I332Y (antibody)
heavy: not shown
light: B1 light
B11: human IgG1 anti-human CCR4 antibody (KM2160), S239E/K326T (antibody)
heavy: not shown
light: B1 light
B12: human IgG1 anti-human CCR4 antibody (KM2160), S239D/I332F (antibody)
heavy: not shown
light: B1 light
B13: human IgG1 anti-human CCR4 antibody (KM2160), S239E/I332A (antibody)
heavy: not shown
light: B1 light
B14: human IgG1 anti-human CCR4 antibody (KM2160), S239D/I332A (antibody)
heavy: not shown
light: B1 light
B15: human IgG1 anti-human CCR4 antibody (KM2160), printed as S239E/I332E, CH of SEQ ID NO 178 (antibody)
heavy: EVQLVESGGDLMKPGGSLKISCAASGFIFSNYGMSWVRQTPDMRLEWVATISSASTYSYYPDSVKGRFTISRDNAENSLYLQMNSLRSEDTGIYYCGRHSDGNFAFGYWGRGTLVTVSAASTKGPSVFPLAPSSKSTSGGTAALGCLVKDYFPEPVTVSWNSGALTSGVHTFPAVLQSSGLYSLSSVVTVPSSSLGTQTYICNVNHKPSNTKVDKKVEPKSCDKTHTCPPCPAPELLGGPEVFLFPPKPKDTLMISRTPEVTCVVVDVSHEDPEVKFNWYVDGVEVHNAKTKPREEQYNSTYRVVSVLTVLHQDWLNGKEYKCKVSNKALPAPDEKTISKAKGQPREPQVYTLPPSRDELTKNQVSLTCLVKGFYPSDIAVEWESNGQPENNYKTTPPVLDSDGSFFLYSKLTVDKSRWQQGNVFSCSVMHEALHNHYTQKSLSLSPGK
light: B1 light
B16: human IgG1 anti-human CCR4 antibody (KM2160), S239D/L326I (as printed) (antibody)
heavy: not shown
light: B1 light
B17: human IgG1 anti-human CCR4 antibody (KM2160), S239D/K326E (antibody)
heavy: not shown
light: B1 light
B18: human IgG1 anti-human CCR4 antibody (KM2160), S239D/I332D (antibody)
heavy: not shown
light: B1 light
B19: human IgG1 anti-human CCR4 antibody (KM2160), S239D/I332W (antibody)
heavy: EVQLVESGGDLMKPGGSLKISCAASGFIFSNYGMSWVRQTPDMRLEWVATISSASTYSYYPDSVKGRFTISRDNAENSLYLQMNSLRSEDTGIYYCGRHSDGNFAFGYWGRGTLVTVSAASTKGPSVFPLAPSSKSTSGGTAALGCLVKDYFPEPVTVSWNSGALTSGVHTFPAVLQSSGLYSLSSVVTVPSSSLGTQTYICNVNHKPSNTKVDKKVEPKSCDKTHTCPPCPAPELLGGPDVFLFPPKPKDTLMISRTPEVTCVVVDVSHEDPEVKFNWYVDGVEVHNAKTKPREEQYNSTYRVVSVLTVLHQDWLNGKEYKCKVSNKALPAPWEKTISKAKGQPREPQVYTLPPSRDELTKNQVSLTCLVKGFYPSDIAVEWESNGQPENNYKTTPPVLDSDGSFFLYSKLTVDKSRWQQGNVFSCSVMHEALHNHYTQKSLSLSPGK
light: B1 light
B20: human IgG1 anti-human CCR4 antibody (KM2160), S239D/I332T (antibody)
heavy: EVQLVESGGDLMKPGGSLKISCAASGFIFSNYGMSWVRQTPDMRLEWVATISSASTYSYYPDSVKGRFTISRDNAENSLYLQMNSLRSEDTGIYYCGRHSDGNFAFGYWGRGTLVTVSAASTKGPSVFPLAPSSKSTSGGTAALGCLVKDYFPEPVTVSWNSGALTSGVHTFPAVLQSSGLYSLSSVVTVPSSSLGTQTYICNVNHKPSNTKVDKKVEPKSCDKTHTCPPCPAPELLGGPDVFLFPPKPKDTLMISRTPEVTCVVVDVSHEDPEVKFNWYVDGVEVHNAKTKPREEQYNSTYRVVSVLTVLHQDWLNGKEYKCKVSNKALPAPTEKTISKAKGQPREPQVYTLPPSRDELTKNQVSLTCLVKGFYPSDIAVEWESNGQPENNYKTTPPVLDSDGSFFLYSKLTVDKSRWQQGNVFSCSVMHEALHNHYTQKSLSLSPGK
light: B1 light
B21: human IgG1 anti-human CCR4 antibody (KM2160), S239E/I332E, CH of SEQ ID NO 176 (antibody)
heavy: not shown
light: B1 light
B22: human IgG1 anti-human CCR4 antibody (KM2160), S239E/I332W (antibody)
heavy: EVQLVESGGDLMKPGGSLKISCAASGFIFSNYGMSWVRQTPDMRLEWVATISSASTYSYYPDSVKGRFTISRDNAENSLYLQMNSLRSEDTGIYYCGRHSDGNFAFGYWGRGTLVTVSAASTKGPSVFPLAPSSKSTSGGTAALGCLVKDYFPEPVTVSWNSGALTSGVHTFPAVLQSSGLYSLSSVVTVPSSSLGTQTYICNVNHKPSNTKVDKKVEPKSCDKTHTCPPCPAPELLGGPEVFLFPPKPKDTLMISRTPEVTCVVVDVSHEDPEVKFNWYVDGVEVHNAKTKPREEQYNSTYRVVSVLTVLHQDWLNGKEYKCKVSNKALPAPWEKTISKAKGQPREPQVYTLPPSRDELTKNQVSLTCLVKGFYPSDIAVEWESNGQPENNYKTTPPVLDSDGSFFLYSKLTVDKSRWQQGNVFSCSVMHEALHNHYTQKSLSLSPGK
light: B1 light
B23: human IgG1 anti-human CCR4 antibody (KM2160), S239E/K326E (antibody)
heavy: not shown
light: B1 light
B24: human IgG1 anti-human CCR4 antibody (KM2160), S298A/E333A/K334A (AAA)/P329R (antibody)
heavy: EVQLVESGGDLMKPGGSLKISCAASGFIFSNYGMSWVRQTPDMRLEWVATISSASTYSYYPDSVKGRFTISRDNAENSLYLQMNSLRSEDTGIYYCGRHSDGNFAFGYWGRGTLVTVSAASTKGPSVFPLAPSSKSTSGGTAALGCLVKDYFPEPVTVSWNSGALTSGVHTFPAVLQSSGLYSLSSVVTVPSSSLGTQTYICNVNHKPSNTKVDKKVEPKSCDKTHTCPPCPAPELLGGPSVFLFPPKPKDTLMISRTPEVTCVVVDVSHEDPEVKFNWYVDGVEVHNAKTKPREEQYNATYRVVSVLTVLHQDWLNGKEYKCKVSNKALRAPIAATISKAKGQPREPQVYTLPPSRDELTKNQVSLTCLVKGFYPSDIAVEWESNGQPENNYKTTPPVLDSDGSFFLYSKLTVDKSRWQQGNVFSCSVMHEALHNHYTQKSLSLSPGK
light: B1 light
B25: human IgG1 anti-human CCR4 antibody (KM2160), S239D (antibody)
heavy: not shown
light: B1 light
B26: human IgG1 anti-human CCR4 antibody (KM2160), S298A/E333A/K334A (AAA)/S239D/I332E (antibody)
heavy: B24 heavy with S241D, R331P, I334E
light: B1 light
B27: human IgG1 anti-human CCR4 antibody (KM2160), S298A/E333A/K334A (AAA)/E283L (antibody)
heavy: B24 heavy with E285L, R331P
light: B1 light
B28: human IgG1 anti-human CCR4 antibody (KM2160), S298A/E333A/K334A (AAA)/F372Y (antibody)
heavy: B24 heavy with R331P, F374Y
light: B1 light
B29: human IgG1 anti-human CCR4 antibody (KM2160), S298A/E333A/K334A (AAA)/Q295T (antibody)
heavy: B24 heavy with Q297T, R331P
light: B1 light
B30: human IgG1 anti-human CCR4 antibody (KM2160), S239E (antibody)
heavy: not shown
light: B1 light
B31: human IgG1 anti-human CCR4 antibody (KM2160), S298A/E333A/K334A (AAA)/A327D (antibody)
heavy: B24 heavy with A329D, R331P
light: B1 light
B32: human IgG1 anti-human CCR4 antibody (KM2160), S298A/E333A/K334A (AAA)/A330F (antibody)
heavy: B24 heavy with R331P, A332F
light: B1 light
B33: human IgG1 anti-human CCR4 antibody (KM2160), S298A/E333A/K334A (AAA)/V379M (antibody)
heavy: B24 heavy with R331P, V381M
light: B1 light
B34: human IgG1 anti-human CCR4 antibody (KM2160), S298A/E333A/K334A (AAA)/A339T (antibody)
heavy: B24 heavy with R331P, A341T
light: B1 light
B35: human IgG1 anti-human CCR4 antibody (KM2160), S298A/E333A/K334E (antibody)
heavy: B24 heavy with R331P, A336E
light: B1 light
B36: human IgG1 anti-human CCR4 antibody (KM2160), S298A/E333A/K334A (AAA)/S239D (antibody)
heavy: B24 heavy with S241D, R331P
light: B1 light
B37: human IgG1 anti-human CCR4 antibody (KM2160), S298A/E333A/K334A (AAA)/K248M (antibody)
heavy: B24 heavy with K250M, R331P
light: B1 light
B38: human IgG1 anti-human CCR4 antibody (KM2160), S298A/E333A/K334A (AAA)/G236S (antibody)
heavy: B24 heavy with G238S, R331P
light: B1 light
B39: human IgG1 anti-human CCR4 antibody (KM2160), printed as S298A/E333A/K334A, CH of SEQ ID NO 120 (antibody)
heavy: B24 heavy with A300T, R331P
light: B1 light
B40: human IgG1 anti-human CCR4 antibody (KM2160), S298A/E333A/K334A (AAA)/E294W (antibody)
heavy: B24 heavy with E296W, R331P
light: B1 light
B41: human IgG1 anti-human CCR4 antibody (KM2160), S298A/E333A/K334A (AAA)/E258H (antibody)
heavy: B24 heavy with E260H, R331P
light: B1 light
B42: human IgG1 anti-human CCR4 antibody (KM2160), S298A/E333A/K334A (AAA)/D265G (antibody)
heavy: B24 heavy with D267G, R331P
light: B1 light
B43: human IgG1 anti-human CCR4 antibody (KM2160), S298A/E333A/K334A (AAA)/L235T (antibody)
heavy: B24 heavy with L237T, R331P
light: B1 light
B44: human IgG1 anti-human CCR4 antibody (KM2160), S298A/E333A/K334A (AAA)/F243L (antibody)
heavy: B24 heavy with F245L, R331P
light: B1 light

Biological target: T1, human CD16a (Val type) stably expressed on NK-92 cells (NK-92/CD16 transfectant) (human, UniProt P08637 17-254)
Experiment: cell-based or functional assay

T1 sequence (P08637 17-254 F176V): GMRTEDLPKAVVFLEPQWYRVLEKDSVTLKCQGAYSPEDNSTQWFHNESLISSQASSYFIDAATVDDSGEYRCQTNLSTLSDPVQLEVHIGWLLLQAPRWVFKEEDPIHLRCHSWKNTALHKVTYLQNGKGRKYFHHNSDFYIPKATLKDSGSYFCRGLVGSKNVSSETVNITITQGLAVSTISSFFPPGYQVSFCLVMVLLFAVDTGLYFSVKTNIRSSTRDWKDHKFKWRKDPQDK

Binder	relative ADCC activity (AAA = 100)
B1	34 relative, AAA at 0.1 µg/mL = 100
B2	57 relative, AAA at 0.1 µg/mL = 100
B3	52 relative, AAA at 0.1 µg/mL = 100
B4	113 relative, AAA at 0.1 µg/mL = 100
B5	82 relative, AAA at 0.1 µg/mL = 100
B6	109 relative, AAA at 0.1 µg/mL = 100
B7	84 relative, AAA at 0.1 µg/mL = 100
B8	123 relative, AAA at 0.1 µg/mL = 100
B9	71 relative, AAA at 0.1 µg/mL = 100
B10	130 relative, AAA at 0.1 µg/mL = 100
B11	132 relative, AAA at 0.1 µg/mL = 100
B12	93 relative, AAA at 0.1 µg/mL = 100
B13	62 relative, AAA at 0.1 µg/mL = 100
B14	94 relative, AAA at 0.1 µg/mL = 100
B15	90 relative, AAA at 0.1 µg/mL = 100
B16	146 relative, AAA at 0.1 µg/mL = 100
B17	147 relative, AAA at 0.1 µg/mL = 100
B18	150 relative, AAA at 0.1 µg/mL = 100
B19	94 relative, AAA at 0.1 µg/mL = 100
B20	72 relative, AAA at 0.1 µg/mL = 100
B21	153 relative, AAA at 0.1 µg/mL = 100
B22	44 relative, AAA at 0.1 µg/mL = 100
B23	129 relative, AAA at 0.1 µg/mL = 100

Biological target: T1, human CD16a (Val type) stably expressed …
Experiment: cell-based or functional assay
Remark: another data set of the same source

Binder	relative ADCC activity (AAA = 100)
B24	5 relative, AAA at 0.1 µg/mL = 100
B25	116 relative, AAA at 0.1 µg/mL = 100
B26	119 relative, AAA at 0.1 µg/mL = 100
B27	82 relative, AAA at 0.1 µg/mL = 100
B28	70 relative, AAA at 0.1 µg/mL = 100
B29	4 relative, AAA at 0.1 µg/mL = 100
B30	88 relative, AAA at 0.1 µg/mL = 100
B31	-28 relative, AAA at 0.1 µg/mL = 100
B32	96 relative, AAA at 0.1 µg/mL = 100
B33	51 relative, AAA at 0.1 µg/mL = 100
B34	36 relative, AAA at 0.1 µg/mL = 100
B35	114 relative, AAA at 0.1 µg/mL = 100
B36	291 relative, AAA at 0.1 µg/mL = 100
B37	165 relative, AAA at 0.1 µg/mL = 100
B38	-46 relative, AAA at 0.1 µg/mL = 100
B39	-97 relative, AAA at 0.1 µg/mL = 100
B40	171 relative, AAA at 0.1 µg/mL = 100
B41	94 relative, AAA at 0.1 µg/mL = 100
B42	-89 relative, AAA at 0.1 µg/mL = 100
B43	-69 relative, AAA at 0.1 µg/mL = 100
B44	79 relative, AAA at 0.1 µg/mL = 100
